The labels stand for the following.
B1: Plasma membrane calcium-transporting ATPase 2 (Homo sapiens), Q01814 (parent)
chain: MGDMTNSDFYSKNQRNESSHGGEFGCTMEELRSLMELRGTEAVVKIKETYGDTEAICRRLKTSPVEGLPGTAPDLEKRKQIFGQNFIPPKKPKTFLQLVWEALQDVTLIILEIAAIISLGLSFYHPPGEGNEGCATAQGGAEDEGEAEAGWIEGAAILLSVICVVLVTAFNDWSKEKQFRGLQSRIEQEQKFTVVRAGQVVQIPVAEIVVGDIAQVKYGDLLPADGLFIQGNDLKIDESSLTGESDQVRKSVDKDPMLLSGTHVMEGSGRMLVTAVGVNSQTGIIFTLLGAGGEEEEKKDKKGVKKGDGLQLPAADGAAASNAADSANASLVNGKMQDGNVDASQSKAKQQDGAAAMEMQPLKSAEGGDADDRKKASMHKKEKSVLQGKLTKLAVQIGKAGLVMSAITVIILVLYFTVDTFVVNKKPWLPECTPVYVQYFVKFFIIGVTVLVVAVPEGLPLAVTISLAYSVKKMMKDNNLVRHLDACETMGNATAICSDKTGTLTTNRMTVVQAYVGDVHYKEIPDPSSINTKTMELLINAIAINSAYTTKILPPEKEGALPRQVGNKTECGLLGFVLDLKQDYEPVRSQMPEEKLYKVYTFNSVRKSMSTVIKLPDESFRMYSKGASEIVLKKCCKILNGAGEPRVFRPRDRDEMVKKVIEPMACDGLRTICVAYRDFPSSPEPDWDNENDILNELTCICVVGIEDPVRPEVPEAIRKCQRAGITVRMVTGDNINTARAIAIKCGIIHPGEDFLCLEGKEFNRRIRNEKGEIEQERIDKIWPKLRVLARSSPTDKHTLVKGIIDSTHTEQRQVVAVTGDGTNDGPALKKADVGFAMGIAGTDVAKEASDIILTDDNFSSIVKAVMWGRNVYDSISKFLQFQLTVNVVAVIVAFTGACITQDSPLKAVQMLWVNLIMDTFASLALATEPPTETLLLRKPYGRNKPLISRTMMKNILGHAVYQLALIFTLLFVGEKMFQIDSGRNAPLHSPPSEHYTIIFNTFVMMQLFNEINARKIHGERNVFDGIFRNPIFCTIVLGTFAIQIVIVQFGGKPFSCSPLQLDQWMWCIFIGLGELVWGQVIATIPTSRLKFLKEAGRLTQKEEIPEEELNEDVEEIDHAERELRRGQILWFRGLNRIQTQIRVVKAFRSSLYEGLEKPESRTSIHNFMAHPEFRIEDSQPHIPLIDDTDLEEDAALKQNSSPPSSLNKNNSAIDSGINLTTDTSKSATSSSPGSPIHSLETSL
B2: Copine-8 (Homo sapiens), Q86YQ8 (parent)
chain: MDSRYNSTAGIGDLNQLSAAIPATRVEVSVSCRNLLDRDTFSKSDPICVLYVQGVGNKEWREFGRTEVIDNTLNPDFVRKFILDYFFEERENLRFDLYDVDSKSPNLSKHDFLGQVFCTLGEIVGSQGSRLEKPIVGIPGKKCGTIILTAEELNCCRDAVLMQFCANKLDKKDFFGKSDPFLVFYRSNEDGSFTICHKTEVVKNTLNPVWQAFKISVRALCNGDYDRTIKVEVYDWDRDGSHDFIGEFTTSYRELSRGQSQFNVYEVVNPKKKGKKKKYTNSGTVTLLSFLVETEVSFLDYIKGGTQINFTVAIDFTASNGNPAQPTSLHYMNPYQLNAYGMALKAVGEIVQDYDSDKMFPALGFGAKLPPDGRISHEFALNGNPQNPYCDGIEGVMEAYYRSLKSVQLYGPTNFAPVINHVARYASSVKDGSQYFVLLIVTDGVISDMAQTKESIVNASKLPMSIIIVGVGPAEFDAMVELDGDDVRVSSRGKYAERDIVQFVPFRDYIDRSGNHILSMARLAKDVLAEIPEQFLSYMRARGIKPSPAPPPYTPPTHVLQTQI
B3: Monocarboxylate transporter 2 (Homo sapiens), O60669 (parent)
chain: MPPMPSAPPVHPPPDGGWGWIVVGAAFISIGFSYAFPKAVTVFFKEIQQIFHTTYSEIAWISSIMLAVMYAGGPVSSVLVNKYGSRPVVIAGGLLCCLGMVLASFSSSVVQLYLTMGFITGLGLAFNLQPALTIIGKYFYRKRPMANGLAMAGSPVFLSSLAPFNQYLFNTFGWKGSFLILGSLLLNACVAGSLMRPLGPNQTTSKSKNKTGKTEDDSSPKKIKTKKSTWEKVNKYLDFSLFKHRGFLIYLSGNVIMFLGFFAPIIFLAPYAKDQGIDEYSAAFLLSVMAFVDMFARPSVGLIANSKYIRPRIQYFFSFAIMFNGVCHLLCPLAQDYTSLVLYAVFFGLGFGSVSSVLFETLMDLVGAPRFSSAVGLVTIVECGPVLLGPPLAGKLVDLTGEYKYMYMSCGAIVVAASVWLLIGNAINYRLLAKERKEENARQKTRESEPLSKSKHSEDVNVKVSNAQSVTSERETNI
B4: Guanylate cyclase soluble subunit alpha-2 (Homo sapiens), P33402 (parent)
chain: MSRRKISSESFSSLGSDYLETSPEEEGECPLSRLCWNGSRSPPGPLEPSPAAAAAAAAPAPTPAASAAAAAATAGARRVQRRRRVNLDSLGESISRLTAPSPQTIQQTLKRTLQYYEHQVIGYRDAEKNFHNISNRCSYADHSNKEEIEDVSGILQCTANILGLKFEEIQKRFGEEFFNICFHENERVLRAVGGTLQDFFNGFDALLEHIRTSFGKQATLESPSFLCKELPEGTLMLHYFHPHHIVGFAMLGMIKAAGKKIYRLDVEVEQVANEKLCSDVSNPGNCSCLTFLIKECENTNIMKNLPQGTSQVPADLRISINTFCRAFPFHLMFDPSMSVLQLGEGLRKQLRCDTHKVLKFEDCFEIVSPKVNATFERVLLRLSTPFVIRTKPEASGSENKDKVMEVKGQMIHVPESNSILFLGSPCVDKLDELMGRGLHLSDIPIHDATRDVILVGEQAKAQDGLKKRMDKLKATLERTHQALEEEKKKTVDLLYSIFPGDVAQQLWQGQQVQARKFDDVTMLFSDIVGFTAICAQCTPMQVISMLNELYTRFDHQCGFLDIYKVETIGDAYCVAAGLHRKSLCHAKPIALMALKMMELSEEVLTPDGRPIQMRIGIHSGSVLAGVVGVRMPRYCLFGNNVTLASKFESGSHPRRINVSPTTYQLLKREESFTFIPRSREELPDNFPKEIPGICYFLEVRTGPKPPKPSLSSSRIKKVSYNIGTMFLRETSL
B5: Solute carrier family 15 member 5 (Homo sapiens), A6NIM6 (parent)
chain: MSVTGFTITDEKVHLYHSIEKEKTVRHIGDLCSSHSVKKIQVGICLLLVELCERFTFFEVVCNMIPFCTIKLGYHNCQAAILNLCFIGTSILTPVFVRWLTDVYLGRNKLVYICLFLHFLGTALLSVVAFPLEDFYLGTYHAVNNIPKTEQHRLFYVALLTICLGIGGVRAIVCPLGAFGLQEYGSQKTMSFFNWFYWLMNLNATIVFLGISYIQHSQAWALVLLIPFMSMLMAVITLHMIYYNLIYQSEKRCSLLTGVGVLVSALKTCHPQYCHLGRDVTSQLDHAKEKNGGCYSELHVEDTTFFLTLLPLFIFQLLYRMCIMQIPSGYYLQTMNSNLNLDGFLLPIAVMNAISSLPLLILAPFLEYFSTCLFPSKRVGSFLSTCIIAGNLFAALSVMIAGFFEIHRKHFPAVEQPLSGKVLTVSSMPCFYLILQYVLLGVAETLVNPALSVISYRFVPSNVRGTSMNFLTLFNGFGCFTGALLVKLVYLISDGNWFPNTLNKGNLESFFFFLASLTLLNVLGFCSVSQRYCNLNHFNAQNIRGSNLEETLLLHEKSLKFYGSIQEFSSSIDLWETAL

Variants of B1 are the subject of the first assay. The settings on record: with scrib_human SCRIB.
Target sequence in this assay (Q14160 whole entry): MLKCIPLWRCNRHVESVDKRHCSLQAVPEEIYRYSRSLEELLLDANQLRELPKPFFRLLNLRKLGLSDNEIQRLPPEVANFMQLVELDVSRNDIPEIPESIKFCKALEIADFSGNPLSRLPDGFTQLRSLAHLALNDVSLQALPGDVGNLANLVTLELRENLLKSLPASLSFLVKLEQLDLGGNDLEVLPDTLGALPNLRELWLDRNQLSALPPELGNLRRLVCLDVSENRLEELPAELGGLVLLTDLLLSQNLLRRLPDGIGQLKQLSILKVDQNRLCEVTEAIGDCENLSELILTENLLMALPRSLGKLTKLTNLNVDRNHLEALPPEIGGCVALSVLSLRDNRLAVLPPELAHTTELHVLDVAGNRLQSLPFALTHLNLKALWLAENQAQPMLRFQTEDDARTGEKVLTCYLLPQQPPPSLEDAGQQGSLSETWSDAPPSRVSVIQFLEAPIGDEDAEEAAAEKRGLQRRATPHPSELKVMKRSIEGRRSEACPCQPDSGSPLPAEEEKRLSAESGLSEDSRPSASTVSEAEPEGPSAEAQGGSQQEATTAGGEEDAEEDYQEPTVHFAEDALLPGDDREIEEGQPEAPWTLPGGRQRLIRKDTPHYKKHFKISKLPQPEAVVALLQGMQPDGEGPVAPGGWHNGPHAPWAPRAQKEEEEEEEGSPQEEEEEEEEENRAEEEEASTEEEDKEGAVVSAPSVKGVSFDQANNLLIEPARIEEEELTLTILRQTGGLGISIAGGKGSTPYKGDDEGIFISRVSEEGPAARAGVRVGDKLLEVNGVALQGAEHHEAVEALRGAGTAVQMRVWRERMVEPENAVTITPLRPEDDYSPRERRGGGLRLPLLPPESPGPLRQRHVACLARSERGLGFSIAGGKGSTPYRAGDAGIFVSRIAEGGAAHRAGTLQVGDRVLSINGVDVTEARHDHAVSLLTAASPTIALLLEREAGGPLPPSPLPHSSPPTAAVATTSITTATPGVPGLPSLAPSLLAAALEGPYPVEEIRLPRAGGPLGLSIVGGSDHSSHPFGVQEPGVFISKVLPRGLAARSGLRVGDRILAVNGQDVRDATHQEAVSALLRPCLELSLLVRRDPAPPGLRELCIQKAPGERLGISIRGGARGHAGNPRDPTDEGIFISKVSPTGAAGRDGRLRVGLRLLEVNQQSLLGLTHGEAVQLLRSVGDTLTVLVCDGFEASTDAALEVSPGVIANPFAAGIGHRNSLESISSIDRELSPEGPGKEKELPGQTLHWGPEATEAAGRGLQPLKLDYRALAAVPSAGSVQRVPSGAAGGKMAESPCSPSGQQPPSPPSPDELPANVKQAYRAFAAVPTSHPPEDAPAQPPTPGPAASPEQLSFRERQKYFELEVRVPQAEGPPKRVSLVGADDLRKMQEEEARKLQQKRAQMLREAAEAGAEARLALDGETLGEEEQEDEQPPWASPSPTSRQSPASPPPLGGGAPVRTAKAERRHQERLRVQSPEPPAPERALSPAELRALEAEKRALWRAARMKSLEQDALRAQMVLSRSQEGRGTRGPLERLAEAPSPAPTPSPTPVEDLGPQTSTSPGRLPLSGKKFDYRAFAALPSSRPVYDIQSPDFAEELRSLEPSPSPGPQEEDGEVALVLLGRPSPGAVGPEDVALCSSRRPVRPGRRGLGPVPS
As for T1241E, the “effect of a mutation on the interaction” value is reported as “decreasing interaction strength”. As for S1238E;S1242E, the “effect of a mutation on the interaction” value was “with no effect”. Same read-out and setting: to S1242E belongs “with no effect”.

In the next assay the parent is B1. The following applies: with scrib_human SCRIB. The source holds these as a separate data set.
Target sequence in this assay (Q14160 whole entry): as above
With S1238E, the “effect of a mutation on the interaction” value is given as “disrupting interaction strength”. On to S1242E, for which the “effect of a mutation on the interaction” value is “increasing interaction strength”.

The variants in a further assay derive from B2. The settings on record: with scrib_human SCRIB.
Target sequence in this assay (Q14160 whole entry): as above
Take MDSRYNSTAGIGDLNQLSAAIPATRVEVSVSCRNLLDRDTFSKSDPICVLYVQGVGNKEWREFGRTEVIDNTLNPDFVRKFILDYFFEERENLRFDLYDVDSKSPNLSKHDFLGQVFCTLGEIVGSQGSRLEKPIVGIPGKKCGTIILTAEELNCCRDAVLMQFCANKLDKKDFFGKSDPFLVFYRSNEDGSFTICHKTEVVKNTLNPVWQAFKISVRALCNGDYDRTIKVEVYDWDRDGSHDFIGEFTTSYRELSRGQSQFNVYEVVNPKKKGKKKKYTNSGTVTLLSFLVETEVSFLDYIKGGTQINFTVAIDFTASNGNPAQPTSLHYMNPYQLNAYGMALKAVGEIVQDYDSDKMFPALGFGAKLPPDGRISHEFALNGNPQNPYCDGIEGVMEAYYRSLKSVQLYGPTNFAPVINHVARYASSVKDGSQYFVLLIVTDGVISDMAQTKESIVNASKLPMSIIIVGVGPAEFDAMVELDGDDVRVSSRGKYAERDIVQFVPFRDYIDRSGNHILSMARLAKDVLAEIPEQFLSYMRARGIKPSPAPPPYTPPEHVLQTQI [T557E]: the “effect of a mutation on the interaction” value is given as “causing an interaction”.

In another assay the parent is B3. The following applies: with scrib_human SCRIB.
Target sequence in this assay (Q14160 whole entry): as the sequence (Q14160 whole entry) above
As for MPPMPSAPPVHPPPDGGWGWIVVGAAFISIGFSYAFPKAVTVFFKEIQQIFHTTYSEIAWISSIMLAVMYAGGPVSSVLVNKYGSRPVVIAGGLLCCLGMVLASFSSSVVQLYLTMGFITGLGLAFNLQPALTIIGKYFYRKRPMANGLAMAGSPVFLSSLAPFNQYLFNTFGWKGSFLILGSLLLNACVAGSLMRPLGPNQTTSKSKNKTGKTEDDSSPKKIKTKKSTWEKVNKYLDFSLFKHRGFLIYLSGNVIMFLGFFAPIIFLAPYAKDQGIDEYSAAFLLSVMAFVDMFARPSVGLIANSKYIRPRIQYFFSFAIMFNGVCHLLCPLAQDYTSLVLYAVFFGLGFGSVSSVLFETLMDLVGAPRFSSAVGLVTIVECGPVLLGPPLAGKLVDLTGEYKYMYMSCGAIVVAASVWLLIGNAINYRLLAKERKEENARQKTRESEPLSKSKHSEDVNVKVSNAQSVTEERETNI [S472E], the “effect of a mutation on the interaction” value is “decreasing interaction strength”.

In another assay the parent is B4. The settings on record: with scrib_human SCRIB.
Target sequence in this assay (Q14160 whole entry): as the sequence (Q14160 whole entry) above
S731E: the “effect of a mutation on the interaction” value is on record as “increasing interaction strength”.

In a further assay the parent is B5. The following applies: with scrib_human SCRIB.
Target sequence in this assay (Q14160 whole entry): as the sequence (Q14160 whole entry) above
In the case of MSVTGFTITDEKVHLYHSIEKEKTVRHIGDLCSSHSVKKIQVGICLLLVELCERFTFFEVVCNMIPFCTIKLGYHNCQAAILNLCFIGTSILTPVFVRWLTDVYLGRNKLVYICLFLHFLGTALLSVVAFPLEDFYLGTYHAVNNIPKTEQHRLFYVALLTICLGIGGVRAIVCPLGAFGLQEYGSQKTMSFFNWFYWLMNLNATIVFLGISYIQHSQAWALVLLIPFMSMLMAVITLHMIYYNLIYQSEKRCSLLTGVGVLVSALKTCHPQYCHLGRDVTSQLDHAKEKNGGCYSELHVEDTTFFLTLLPLFIFQLLYRMCIMQIPSGYYLQTMNSNLNLDGFLLPIAVMNAISSLPLLILAPFLEYFSTCLFPSKRVGSFLSTCIIAGNLFAALSVMIAGFFEIHRKHFPAVEQPLSGKVLTVSSMPCFYLILQYVLLGVAETLVNPALSVISYRFVPSNVRGTSMNFLTLFNGFGCFTGALLVKLVYLISDGNWFPNTLNKGNLESFFFFLASLTLLNVLGFCSVSQRYCNLNHFNAQNIRGSNLEETLLLHEKSLKFYGSIQEFSSEIDLWETAL [S571E], the “effect of a mutation on the interaction” value was “decreasing interaction strength”.

Values taken from IntAct's records for PubMed 30126976.
